Target: T1, Flag-tagged kinase dead murine DLK S302A, not phosphorylated at T43, S272 and S533
T1 chain: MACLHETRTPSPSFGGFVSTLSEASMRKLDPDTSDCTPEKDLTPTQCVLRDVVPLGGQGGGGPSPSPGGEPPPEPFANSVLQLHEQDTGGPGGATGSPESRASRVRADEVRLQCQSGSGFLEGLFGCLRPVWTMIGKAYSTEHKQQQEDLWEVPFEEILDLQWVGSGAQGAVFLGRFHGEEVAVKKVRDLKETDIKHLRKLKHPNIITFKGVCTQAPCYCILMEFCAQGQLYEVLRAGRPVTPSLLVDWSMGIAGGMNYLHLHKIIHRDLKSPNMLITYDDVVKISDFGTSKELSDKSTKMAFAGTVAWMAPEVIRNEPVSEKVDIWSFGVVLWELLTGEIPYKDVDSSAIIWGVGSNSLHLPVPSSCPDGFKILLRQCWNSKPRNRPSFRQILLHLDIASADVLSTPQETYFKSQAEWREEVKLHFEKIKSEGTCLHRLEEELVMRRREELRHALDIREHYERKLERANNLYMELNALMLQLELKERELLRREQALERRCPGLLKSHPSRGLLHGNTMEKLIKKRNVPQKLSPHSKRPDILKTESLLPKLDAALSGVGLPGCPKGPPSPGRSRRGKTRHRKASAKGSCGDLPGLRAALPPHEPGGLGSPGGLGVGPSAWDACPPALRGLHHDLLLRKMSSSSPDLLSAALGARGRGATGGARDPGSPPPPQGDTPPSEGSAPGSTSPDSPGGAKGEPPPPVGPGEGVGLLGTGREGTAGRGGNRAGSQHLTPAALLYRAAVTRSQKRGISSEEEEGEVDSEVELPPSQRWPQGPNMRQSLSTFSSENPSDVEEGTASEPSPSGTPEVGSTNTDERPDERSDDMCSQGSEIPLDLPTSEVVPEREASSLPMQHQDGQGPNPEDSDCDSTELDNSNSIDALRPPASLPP

B1: GST-tagged human recombinant JNK3 (Millipore) (protein)
chain: MSLHFLYYCSEPTLDVKIAFCQGFDKQVDVSYIAKHYNMSKSKVDNQFYSVEVGDSTFTVLKRYQNLKPIGSGAQGIVCAAYDAVLDRNVAIKKLSRPFQNQTHAKRAYRELVLMKCVNHKNIISLLNVFTPQKTLEEFQDVYLVMELMDANLCQVIQMELDHERMSYLLYQMLCGIKHLHSAGIIHRDLKPSNIVVKSDCTLKILDFGLARTAGTSFMMTPYVVTRYYRAPEVILGMGYKENVDIWSVGCIMGEMVRHKILFPGRDYIDQWNKVIEQLGTPCPEFMKKLQPTVRNYVENRPKYAGLTFPKLFPDSLFPADSEHNKLKASQARDLLSKMLVIDPAKRISVDDALQHPYINVWYDPAEVEAPPPQIYDKQLDEREHTIEEWKELIYKEVMNSEEKTKNGVVKGQPSPSGAAVNSSESLPPSSSVNDISSMSTDQTLASDTDSSLEASAGPLGCCR
B1 was tested, and the “in vitro kinase assay; phosphorylation of T43 and S533 read by blotting with phospho-specific antibodies” value was “both T43 and S533 can be phosphorylated directly by JNK”.

— patent US20150361184
